{
  "source": "patent US20150175697A1",
  "about": "(MacroGenics, published 2015)",
  "key": {"[1]": {"target": "soluble CD16A (sCD16A) (human) (UniProt P08637)", "sequence (P08637 17-208)": "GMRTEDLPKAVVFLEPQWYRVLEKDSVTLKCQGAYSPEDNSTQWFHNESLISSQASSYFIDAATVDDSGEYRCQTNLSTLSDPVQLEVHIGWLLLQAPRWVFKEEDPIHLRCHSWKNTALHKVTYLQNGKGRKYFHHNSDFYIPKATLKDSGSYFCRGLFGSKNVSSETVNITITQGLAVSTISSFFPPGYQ", "experiment": "SPR (BIAcore), receptor immobilised"}, "[2]": {"target": "T1, soluble CD32B (sCD32B) (human, UniProt P31994 43-217)", "T1 construct": "extracellular domain; also called FcγRIIB; soluble CD32B ectodomain", "T1 sequence (looked up)": "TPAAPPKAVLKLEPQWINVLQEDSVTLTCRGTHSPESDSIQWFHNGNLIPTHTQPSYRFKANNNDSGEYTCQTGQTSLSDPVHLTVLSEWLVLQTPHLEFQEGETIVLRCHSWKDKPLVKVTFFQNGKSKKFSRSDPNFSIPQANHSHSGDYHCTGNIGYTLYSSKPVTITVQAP", "experiment": "sandwich ELISA: sCD32B coated (sCD32B-Ig, 2 ug/ml), diabody titrated, labelled sCD16A as probe; signal needs both bindings", "procedure": "The binding of eluted and purified diabodies was characterized by ELISA assay, as described in 5.4.2. 50 ul/well of a 2 ug/ml solution of sCD32B-Ig was coated on 96-well Maxisorp plate in Carbonate buffer at 4° C. over night. The plate was washed three times with PBS-T (PBS, 0.1% Tween 20) and blocked by 0.5% BSA in PBS-T for 30 minutes at room temperature. […] The plate was then incubated at room temperature for 1 hour. After washing with PBS-T three times, 50 ul/well of 0.2 ug/ml sCD16A-Biotin was added to each well. The plate was again incubated at room temperature for 1 hour. After washing with PBS-T three times, 50 ul/well of a 1:5000 dilution of HRP conjugated streptavidin (Amersham Pharmacia Biotech) was used for detection. The HRP-streptavidin was allowed to incubate for 45 minutes at room temperature. The plate was washed with PBS-T three times and developed using 80 ul/well of TMB substrate. After a 10 minute incubation, the HRP-TMB reaction was stopped by adding 40 ul/well of 1% H₂SO₄."}, "[3]": {"target": "T1, soluble CD32B (sCD32B)", "experiment": "sandwich ELISA on conditioned medium: soluble FcRIIb-G2-Agly coated (100 ng/well), diabody titrated, FcRIIIa-G2-Biotin probe and streptavidin-HRP; signal needs both bindings", "procedure": "After three days in culture, the conditioned medium were harvested and characterized by binding ELISA.\n100 ng/well of soluble FcRIIb-G2-Agly was coated on 96-well Maxisorp plate in Carbonate buffer at 40° C. overnight. Plate was washed three times with PBS/0.1% Tween20 and then blocked by 0.5% BSA in PBS/0.1% Tween 20 for 30 mins at room temperature before adding diabodies. […] The plate was incubated at room temperature for 1 hour. After washed with PBS/0.1% Tween20 three times, 10 ng/well of FcRIIIa-G2-Biotin was added to the plate. The plate was incubated at room temperature for 1 hour. After washed with PBS/0.1% Tween20 three times, 50 ul of 1:5000 dilution of HRP conjugated Streptavidin (Amersham Pharmacia Biotech) was used for detection. After 45 minutes incubation at room temperature, the plate was washed with PBS/0.1% Tween20 three times and developed using TMB substrate. After 10 minutes incubation, the reaction was stopped by 1% H2SO4. The OD450 nm was read by SOFTmax program."}, "[4]": {"target": "T1, soluble CD32B (sCD32B)", "experiment": "sandwich ELISA on conditioned medium: soluble FcRIIb-G2-Agly coated, FcRIIIa-G2-Biotin probe and streptavidin-HRP"}, "[5]": {"target": "T2, soluble CD16A (sCD16A) (human, UniProt P08637 17-208)", "T2 construct": "extracellular domain; given only as soluble; immobilised in SPR, plate coat or biotin/HRP-labelled probe in ELISA; also called FcγRIIIA; sCD16A-Biotin", "T2 sequence (P08637 17-208)": "as the sequence (P08637 17-208) above", "experiment": "sandwich ELISA on conditioned medium: soluble FcRIIb-G2-Agly coated, FcRIIIa-G2-Biotin probe and streptavidin-HRP"}, "[6]": {"target": "T3, human serum albumin (HSA) (human, UniProt P02768 25-609)", "T3 construct": "also called HRP-human albumin", "experiment": "Albumin Binding Assay; x axis hE16scFv-ABD Concentration (ug/ml); albumin taken as HSA as in Table 23"}, "[7]": {"target": "T3, human serum albumin (HSA)", "experiment": "ABD-Binding Elisa; x axis Protein concentration (ug/ml); albumin taken as HSA as in Table 23"}, "[8]": {"target": "T3, human serum albumin (HSA)", "experiment": "Albumin Binding Assay; x axis hE16scFv-ABD Concentration (ug/ml); albumin taken as HSA as in Table 23", "remark": "listed apart in the source"}, "[9]": {"target": "T3, human serum albumin (HSA)", "experiment": "HSA binding class (+++ 0.7-1.0; ++ 0.4-0.7; + 0.1-0.4)"}, "[10]": {"target": "T2, soluble CD16A (sCD16A)", "experiment": "dual ELISA: CD16A coated, DART titrated, biotinylated sCD32B detection, with 3 mg/ml HSA"}, "[11]": {"target": "T2, soluble CD16A (sCD16A)", "experiment": "dual ELISA: CD16A coated, DART titrated, biotinylated sCD32B detection, without HSA"}, "[12]": {"target": "T3, human serum albumin (HSA)", "experiment": "SPR sensorgrams with HSA; printed under the panel"}, "[13]": {"target": "T4, soluble CD16A(158F) (human, UniProt P08637 17-208)", "T4 construct": "extracellular domain; also called CD16A(F158); sCD16A", "T4 sequence (P08637 17-208)": "as the sequence (P08637 17-208) above", "experiment": "SPR sensorgrams with sCD16A (158F per paragraph 834); printed under the panel"}, "[14]": {"target": "T1, soluble CD32B (sCD32B)", "experiment": "SPR sensorgrams with sCD32B; printed under the panel"}},
  "data": [
    {"molecule": "h3G8 scFv", "values": [
      {"measurement": "Kd", "setting": "[1]", "result": 38.7, "unit": "nM"}
    ]},
    {"molecule": "h2B6-h3G8 covalent bispecific diabody (CBD) (bispecific antibody, covalent heterodimer of constructs 1 and 2; also called h2B6-h3G8 CBD; h2B6-h3G8 diabody) chain 1: EIVLTQSPDFQSVTPKEKVTFTCRTSQSIGTNIHWYQQKPDQSPKLLIKEVSESISGVPSRFSGSGSGTDFTLTINSLEAEDAATYYCQQSNTWPFTFGGGTKVEIKGGGSGGGGQVTLRESGPALVKPTQTLTLTCTFSGFSLSTSGMGVGWIRQPPGKALEWLAHIWWDDDKRYNPALKSRLTISKDTSKNQVVLTMTNMDPVDTATYYCAQINPAWFAYWGQGTLVTVSSLGGC chain 2: DIVMTQSPDSLAVSLGERATINCKASQSVDFDGDSFMNWYQQKPGQPPKLLIYTTSNLESGVPDRFSGSGSGTDFTLTISSLQAEDVAVYYCQQSNEDPYTFGQGTKLEIKGGGSGGGGQVQLVQSGAEVKKPGASVKVSCKASGYTFTNYWIHWVRQAPGQGLEWIGVIDPSDTYPNYNKKFKGRVTMTVVVSTSTAYMELRSLRSDDTAVYYCARNGDSDYYSGMDYWGQGTTVTVSSLGGC", "values": [
      {"measurement": "EC50 (read off the curve)", "setting": "[2]", "result": "~0.05", "unit": "µg/mL"}
    ]},
    {"molecule": "Hu2B6 4.5-Hu3G8 5.1 (bispecific antibody, the two chains are joined by a disulfide between their C-terminal LGGC cysteines, tested as conditioned medium of HEK-293 cells; also called Hu2B6 4.5-Hu3G8 5.1 biospecific diabody) chain 1: DIVMTQSPDSLAVSLGERATINCKASQSVDFDGDSFMNWYQQKPGQPPKLLIYTTSNLESGVPDRFSGSGSGTDFTLTISSLQAEDVAVYYCQQSNEDPYTFGQGTKLEIKGGGSGGGGQVQLVQSGAEVKKPGASVKVSCKASGYTFTNYWIHWVRQAPGQGLEWIGVIDPSDTYPNYNKKFKGRVTMTVVVSTSTAYMELRSLRSDDTAVYYCARNGDSDYYSGMDYWGQGTTVTVSSLGGC chain 2: EIVLTQSPDFQSVTPKEKVTFTCRTSQSIGTNIHWYQQKPDQSPKLLIKEVSESISGVPSRFSGSGSGTDFTLTINSLEAEDAATYYCQQSNTWPFTFGGGTKVEIKGGGSGGGGQVTLRESGPALVKPTQTLTLTCTFSGFSLSTSGMGVGWIRQPPGKALEWLAHIWWDDDKRYNPALKSRLTISKDTSKNQVVLTMTNMDPVDTATYYCAQINPAWFAYWGQGTLVTVSSLGGC", "values": [
      {"measurement": "EC50 (read off the curve)", "setting": "[3]", "result": "~0.05", "unit": "µg/mL"}
    ]},
    {"molecule": "Hu3G8 5.1 (other, homodimer of two identical chains, joined by a disulfide between the C-terminal LGGC cysteines, monospecific diabody, conditioned medium; also called Hu3G8 5.1 diabody) chain 1: DIVMTQSPDSLAVSLGERATINCKASQSVDFDGDSFMNWYQQKPGQPPKLLIYTTSNLESGVPDRFSGSGSGTDFTLTISSLQAEDVAVYYCQQSNEDPYTFGQGTKLEIKGGGSGGGGQVTLRESGPALVKPTQTLTLTCTFSGFSLSTSGMGVGWIRQPPGKALEWLAHIWWDDDKRYNPALKSRLTISKDTSKNQVVLTMTNMDPVDTATYYCAQINPAWFAYWGQGTLVTVSSLGGC chain 2: DIVMTQSPDSLAVSLGERATINCKASQSVDFDGDSFMNWYQQKPGQPPKLLIYTTSNLESGVPDRFSGSGSGTDFTLTISSLQAEDVAVYYCQQSNEDPYTFGQGTKLEIKGGGSGGGGQVTLRESGPALVKPTQTLTLTCTFSGFSLSTSGMGVGWIRQPPGKALEWLAHIWWDDDKRYNPALKSRLTISKDTSKNQVVLTMTNMDPVDTATYYCAQINPAWFAYWGQGTLVTVSSLGGC", "values": [
      {"measurement": "binding result", "setting": "[4]", "result": "no binding (tested: 0.5 ug/ml)"}
    ]},
    {"molecule": "Hu2B6 4.5 (other, homodimer of two identical chains, joined by a disulfide between the C-terminal LGGC cysteines, monospecific diabody, conditioned medium; also called Hu2B6 4.5 diabody) chain 1: EIVLTQSPDFQSVTPKEKVTFTCRTSQSIGTNIHWYQQKPDQSPKLLIKEVSESISGVPSRFSGSGSGTDFTLTINSLEAEDAATYYCQQSNTWPFTFGGGTKVEIKGGGSGGGGQVQLVQSGAEVKKPGASVKVSCKASGYTFTNYWIHWVRQAPGQGLEWIGVIDPSDTYPNYNKKFKGRVTMTVVVSTSTAYMELRSLRSDDTAVYYCARNGDSDYYSGMDYWGQGTTVTVSSLGGC chain 2: EIVLTQSPDFQSVTPKEKVTFTCRTSQSIGTNIHWYQQKPDQSPKLLIKEVSESISGVPSRFSGSGSGTDFTLTINSLEAEDAATYYCQQSNTWPFTFGGGTKVEIKGGGSGGGGQVQLVQSGAEVKKPGASVKVSCKASGYTFTNYWIHWVRQAPGQGLEWIGVIDPSDTYPNYNKKFKGRVTMTVVVSTSTAYMELRSLRSDDTAVYYCARNGDSDYYSGMDYWGQGTTVTVSSLGGC", "values": [
      {"measurement": "binding result", "setting": "[5]", "result": "no binding (tested: 0.5 ug/ml)"}
    ]},
    {"molecule": "LAEAKVLANRELDKYGVSDYYKNLADNAKTVEGVKALIDEILAALP (other, also called 65A/66D)", "note": "[ABD3 I65A/N66D]", "values": [
      {"measurement": "binding result", "setting": "[6]", "result": "binds"}
    ]},
    {"molecule": "LAEAKVLANRELDKYGVSDYAKNLINNAKSVEGVKALIDEILAALP (other)", "note": "[Y61A/T70S]", "values": [
      {"measurement": "binding result", "setting": "[7]", "result": "binds"}
    ]},
    {"molecule": "LAEAKVLANRELDKYGVSDYYKNAIDNAKTVEGVKALIDEILAALP (other, also called 64A/66D)", "note": "[ABD3 L64A/N66D]", "values": [
      {"measurement": "binding result", "setting": "[8]", "result": "binds"}
    ]},
    {"molecule": "LAEAKVLANRELDKYGVSDYYKNLISNAKTVEGVKALIDEILAALP (other)", "note": "[ABD3 N66S]", "values": [
      {"measurement": "binding result", "setting": "[7]", "result": "binds"}
    ]},
    {"molecule": "LAEAKVLANRELDKYGVSDYAKNLISNAKTVEGVKALIDEILAALP (other, also called 61A/66S)", "note": "[ABD3 Y61A/N66S]", "values": [
      {"measurement": "binding result", "setting": "[7]", "result": "binds"}
    ]},
    {"molecule": "LAEAKVLANRELDKYGVSDYYKNLINNAKSVEGVKALIDEILAALP (other)", "note": "[ABD3 T70S]", "values": [
      {"measurement": "HSA binding", "setting": "[9]", "result": "0.7 to 1"}
    ]},
    {"molecule": "LAEAKVLANRELDKYGVSDYYKNAANNAKTVEGVKALIDEILAALP (other, also called 64A/65A)", "note": "[ABD3 L64A/I65A]", "values": [
      {"measurement": "binding result", "setting": "[8]", "result": "binds"}
    ]},
    {"molecule": "LAEAKVLANRELDKYGVSDYAKNLIDNAKTVEGVKALIDEILAALP (other, also called 61A/66D)", "note": "[ABD3 Y61A/N66D]", "values": [
      {"measurement": "binding result", "setting": "[8]", "result": "binds"}
    ]},
    {"molecule": "LAEAKVLANRELDKYGVSDYYKNAANNAKTAEGVKALIDEILAALP (other, also called 64A/65A/71A)", "note": "[ABD3 L64A/I65A/V71A (ABD (AAA))]", "values": [
      {"measurement": "HSA binding", "setting": "[9]", "result": "0.4 to 0.7"}
    ]},
    {"molecule": "hCD16-hCD32B ABD-DART (bispecific antibody, also called DART ABD fusion; hCD16-hCD32B EK ABD-DART) chain 1: DIVMTQSPDSLAVSLGERATINCKASQSVDFDGDSFMNWYQQKPGQPPKLLIYTTSNLESGVPDRFSGSGSGTDFTLTISSLQAEDVAVYYCQQSNEDPYTFGQGTKLEIKGGGSGGGGQVQLVQSGAEVKKPGASVKVSCKASGYTFTNYWIHWVRQAPGQGLEWIGVIDPSDTYPNYNKKFKGRVTMTVVVSTSTAYMELRSLRSDDTAVYYCARNGDSDYYSGMDYWGQGTTVTVSSGGCGGGKVAALKEKVAALKEKVAALKEKVAALKEGGGNS chain 2: EIVLTQSPDFQSVTPKEKVTFTCRTSQSIGTNIHWYQQKPDQSPKLLIKEVSESISGVPSRFSGSGSGTDFTLTINSLEAEDAATYYCQQSNTWPFTFGGGTKVEIKGGGSGGGGQVTLRESGPALVKPTQTLTLTCTFSGFSLSTSGMGVGWIRQPPGKALEWLAHIWWDDDKRYNPALKSRLTISKDTSKNQVVLTMTNMDPVDTATYYCAQINPAWFAYWGQGTLVTVSSGGCGGGEVAALEKEVAALEKEVAALEKEVAALEKGGGNSLAEAKVLANRELDKYGVSDYYKNLINNAKTVEGVKALIDEILAALP", "values": [
      {"measurement": "EC50 (read off the curve)", "setting": "[10]", "result": "~0.06", "unit": "µg/mL"},
      {"measurement": "EC50 (read off the curve)", "setting": "[11]", "result": "~0.05", "unit": "µg/mL"},
      {"measurement": "Kd", "setting": "[12]", "result": 7.1, "unit": "nM"},
      {"measurement": "koff", "setting": "[12]", "result": 0.00064, "unit": "s⁻¹"},
      {"measurement": "kon", "setting": "[12]", "result": 90000, "unit": "M⁻¹ s⁻¹"},
      {"measurement": "Kd", "setting": "[13]", "result": 137, "unit": "nM"},
      {"measurement": "koff", "setting": "[13]", "result": 0.052, "unit": "s⁻¹"},
      {"measurement": "kon", "setting": "[13]", "result": 380000, "unit": "M⁻¹ s⁻¹"},
      {"measurement": "Kd", "setting": "[14]", "result": 30, "unit": "nM"},
      {"measurement": "koff", "setting": "[14]", "result": 0.0072, "unit": "s⁻¹"},
      {"measurement": "kon", "setting": "[14]", "result": 240000, "unit": "M⁻¹ s⁻¹"}
    ]}
  ]
}
